Results: IntAct's records for PubMed 18494562

B1: Raf homolog serine/threonine-protein kinase Raf (Drosophila melanogaster (Fruit fly)), P11346 (parent)
chain: MSSESSTEGDSDLYDPLAEELHNVQLVKHVTRENIDALNAKFANLQEPPAMYLIEYQELTSKLHELEAKEQELMERLNSQDQQEDSSLVERFKEQPHYQNQTQILQQQRQLARVHHGNDLTDSLGSQPGSQCGTLTRQPKILLRAHLPNQQRTSVEVISGVRLCDALMKALKLRQLTPDMCEVSTTHSGRHIIPWHTDIGTLHVEEIFVRLLDKFPIRTHIKHQIIRKTFFSLVFCEGCRRLLFTGFYCSQCNFRFHQRCANRVPMLCQPFPMDSYYQLLLAENPDNGVGFPGRGTAVRFNMSSRSRSRRCSSSGSSSSSKPPSSSSGNHRQGRPPRISQDDRSNSAPNVCINNIRSVTSEVQRSLIMQARPPLPHPCTDHSNSTQASPTSTLKHNRPRARSADESNKNLLLRDAKSSEENWNILAEEILIGPRIGSGSFGTVYRAHWHGPVAVKTLNVKTPSPAQLQAFKNEVAMLKKTRHCNILLFMGCVSKPSLAIVTQWCEGSSLYKHVHVSETKFKLNTLIDIGRQVAQGMDYLHAKNIIHRDLKSNNIFLHEDLSVKIGDFGLATAKTRWSGEKQANQPTGSILWMAPEVIRMQELNPYSFQSDVYAFGIVMYELLAECLPYGHISNKDQILFMVGRGLLRPDMSQVRSDAPQALKRLAEDCIKYTPKDRPLFRPLLNMLENMLRTLPKIHRSASEPNLTQSQLQNDEFLYLPSPKTPVNFNNFQFFGSAGNI
partner: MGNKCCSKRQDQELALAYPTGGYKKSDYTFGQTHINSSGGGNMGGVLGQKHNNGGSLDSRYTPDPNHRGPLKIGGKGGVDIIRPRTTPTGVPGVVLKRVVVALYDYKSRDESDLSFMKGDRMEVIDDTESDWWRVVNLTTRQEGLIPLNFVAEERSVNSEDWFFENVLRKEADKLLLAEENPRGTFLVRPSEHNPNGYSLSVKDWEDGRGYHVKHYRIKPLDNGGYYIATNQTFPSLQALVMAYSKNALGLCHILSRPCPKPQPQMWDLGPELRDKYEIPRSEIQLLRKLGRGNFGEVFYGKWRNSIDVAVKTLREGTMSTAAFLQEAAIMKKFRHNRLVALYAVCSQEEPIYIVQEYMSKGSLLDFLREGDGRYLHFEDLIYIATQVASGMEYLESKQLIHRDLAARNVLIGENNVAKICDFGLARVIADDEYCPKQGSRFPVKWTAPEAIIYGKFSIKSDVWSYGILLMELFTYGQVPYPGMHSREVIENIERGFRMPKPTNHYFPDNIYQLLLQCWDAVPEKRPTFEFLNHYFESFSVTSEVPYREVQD
B2: Raf homolog serine/threonine-protein kinase Raf (Drosophila melanogaster (Fruit fly)), P11346 (parent)
chain: B1 chain

Variants of: B1
Conditions: with src64_drome Src64B

effect of a mutation on the interaction	Variant
disrupting interaction	Y510F

Variants of: B2
Conditions: with dsor1_drome Dsor1, Q24324
Chain of dsor1_drome Dsor1, Q24324 (Q24324 whole entry): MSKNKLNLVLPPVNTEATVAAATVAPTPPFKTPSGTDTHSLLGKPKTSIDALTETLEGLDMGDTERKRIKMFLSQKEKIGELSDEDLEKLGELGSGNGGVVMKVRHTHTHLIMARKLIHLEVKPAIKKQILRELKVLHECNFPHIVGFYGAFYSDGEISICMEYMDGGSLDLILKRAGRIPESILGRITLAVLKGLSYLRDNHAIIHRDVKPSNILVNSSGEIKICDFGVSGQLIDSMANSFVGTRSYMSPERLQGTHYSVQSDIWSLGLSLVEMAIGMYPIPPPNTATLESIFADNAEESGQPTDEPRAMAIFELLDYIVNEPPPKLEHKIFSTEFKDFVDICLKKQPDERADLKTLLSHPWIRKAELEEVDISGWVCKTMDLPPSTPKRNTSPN

effect of a mutation on the interaction	Variant
increasing interaction	Y510E
